Test results reported in article PMC5934765.

Target: α-synuclein (AS) expressed in non-mitotic SH-SY5Y cells, P37840
Assay: proximity ligation
Conditions: remark: other sources report otherwise

reduction of the PLA signal by 0.5 μM CPA: 50%
B1: SERCA2 in SH-SY5Y cells, P16615 1-1042 (enzyme)
chain: MENAHTKTVEEVLGHFGVNESTGLSLEQVKKLKERWGSNELPAEEGKTLLELVIEQFEDLLVRILLLAACISFVLAWFEEGEETITAFVEPFVILLILVANAIVGVWQERNAENAIEALKEYEPEMGKVYRQDRKSVQRIKAKDIVPGDIVEIAVGDKVPADIRLTSIKSTTLRVDQSILTGESVSVIKHTDPVPDPRAVNQDKKNMLFSGTNIAAGKAMGVVVATGVNTEIGKIRDEMVATEQERTPLQQKLDEFGEQLSKVISLICIAVWIINIGHFNDPVHGGSWIRGAIYYFKIAVALAVAAIPEGLPAVITTCLALGTRRMAKKNAIVRSLPSVETLGCTSVICSDKTGTLTTNQMSVCRMFILDRVEGDTCSLNEFTITGSTYAPIGEVHKDDKPVNCHQYDGLVELATICALCNDSALDYNEAKGVYEKVGEATETALTCLVEKMNVFDTELKGLSKIERANACNSVIKQLMKKEFTLEFSRDRKSMSVYCTPNKPSRTSMSKMFVKGAPEGVIDRCTHIRVGSTKVPMTSGVKQKIMSVIREWGSGSDTLRCLALATHDNPLRREEMHLEDSANFIKYETNLTFVGCVGMLDPPRIEVASSVKLCRQAGIRVIMITGDNKGTAVAICRRIGIFGQDEDVTSKAFTGREFDELNPSAQRDACLNARCFARVEPSHKSKIVEFLQSFDEITAMTGDGVNDAPALKKAEIGIAMGSGTAVAKTASEMVLADDNFSTIVAAVEEGRAIYNNMKQFIRYLISSNVGEVVCIFLTAALGFPEALIPVQLLWVNLVTDGLPATALGFNPPDLDIMNKPPRNPKEPLISGWLFFRYLAIGCYVGAATVGAAAWWFIAADGGPRVSFYQLSHFLQCKEDNPDFEGVDCAIFESPYPMTMALSVLVTIEMCNALNSLSENQSLLRMPPWENIWLVGSICLSMSLHFLILYVEPLPLIFQITPLNVTQWLMVLKISLPVILMDETLKFVARNYLEPGKECVQPATKSCSFSACTDGISWPFVLLIMPLVIWVYSTDTNFSDMFWS
